Consider six molecules from US20110287023A1 (AstraZeneca / MedImmune, published 2011).

Assay [1] has as its target T1, HMG1 B Box peptide amino acids 91-169.
T1 construct: also called HMG1 peptide 91-169
T1 peptide: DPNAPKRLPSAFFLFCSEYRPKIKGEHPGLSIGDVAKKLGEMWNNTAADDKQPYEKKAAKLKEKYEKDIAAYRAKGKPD
As to the kind of experiment: ELISA, HMG1 B Box peptide 91-169 coated at 10 ug/ml, antibody titrated, OD 450. The procedure: (§1) The plate was then blocked with 4% milk powder dissolved in PBS at 37° C. for 1 hour. The blocking solution was removed and replaced with human anti-HMG1 antibodies at various concentrations (see FIGS. 5A-B). […] HRP activity was detected with Sureblue HRP substrate (KPL). Plates were read at 450 nm using a Kinetic Microplate Reader (Molecular Devices). […] After washing and blocking with 1% BSA in PBS, the biotinylated peptides were individually added into the avidin coated wells and incubated for 30 min at room temperature. The serial diluted antibody G4, S16 and S6 at the initial concentration at 10 μg/ml were then transferred into the wells followed by adding mouse anti human IgG-HRP conjugate (Pierce). Detection was accomplished by adding 50 μl of tetramethylbenzidine (TMB) substrate (KPL) and the absorbance was read at 450 nm.
For orientation: ELISA stands for enzyme-linked immunosorbent assay.

Assay [2] addresses T2, HMG2 coated on ELISA plates (Bos taurus (Bovine), UniProt P40673 2-209).
T2 construct: also called HMGB2; HMBG2
T2 sequence: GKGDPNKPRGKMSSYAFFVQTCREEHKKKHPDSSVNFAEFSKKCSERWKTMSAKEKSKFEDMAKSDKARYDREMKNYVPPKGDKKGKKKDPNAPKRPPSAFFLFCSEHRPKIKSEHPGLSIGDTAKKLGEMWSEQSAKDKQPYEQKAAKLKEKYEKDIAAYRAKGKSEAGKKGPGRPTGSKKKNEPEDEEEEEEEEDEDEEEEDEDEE
As to the kind of experiment: direct ELISA, HMGB2 coated at 5 ug/mL, OD 490. How it is done: (§2) Binding to HMG1 vs. HMG2: Ultra high-binding ELISA plates (ThermoLab systems, #3855) were coated with either 5 ug/mL of Calf thymus HMGB1 or HMBG2 diluted in 10 mM Phosphate buffered saline (PBS), pH 7.2 and incubate overnight at 4 degrees. The plates were washed twice with Ca and Mg free PBS and 100 microliters of anti-HMGB1 antibody diluted in 10 mM PBS, pH 7.2+1% bovine serum albumin (BSA) to a final concentration of 10 ug/mL was added to each well and the plates were incubated 1 hour at room temperature. The wells were washed three times with 100 μl of PBS, pH 7.2. HRP labeled goat-anti-human IgG Kappa-chain (KPL, #14-10-10) and goat-anti-human IgG Lambda-chain (KPL, #14-10-11) were diluted in 10 mM PBS+1% BSA 1:1000 and 100 μl were added to each well and incubated for 1 hour at room temperature. The wells were then washed three times with 100 μl of PBS, pH 7.2. OPD substrate (Pierce chemical company, #34006) was prepared following the manufacturers instructions and 100 μl of prepared substrate was added to each well and the plates incubated at room temperature in the dark for 20-30 minutes. The reaction was stopped with the addition of 100 μl of 2M H₂SO₄, and the plates read on a plate reader at a wavelength of 490 nm.

Assay [3] addresses T3, HMG1 purified from calf (bovine) thymus (bovine, UniProt P10103 2-215).
T3 construct: also called Calf thymus HMGB1; thymus HMG1
T3 sequence (looked up): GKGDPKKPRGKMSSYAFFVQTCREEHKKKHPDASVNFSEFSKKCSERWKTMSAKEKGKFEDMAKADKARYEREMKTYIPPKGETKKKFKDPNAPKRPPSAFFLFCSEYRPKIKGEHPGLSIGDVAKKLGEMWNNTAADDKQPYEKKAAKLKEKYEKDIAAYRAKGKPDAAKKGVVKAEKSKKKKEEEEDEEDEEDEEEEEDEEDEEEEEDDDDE
As to the kind of experiment: direct ELISA, calf thymus HMGB1 coated at 5 ug/mL, antibody at 10 ug/mL, anti-human kappa/lambda-HRP, OD 490. The procedure:
as §2

In assay [4] the target is T4, recombinant HMG1 produced in E. coli as a calmodulin binding protein (CBP) fusion (human).
T4 construct: also called rHMG1; rHMGB1
As to the kind of experiment: BIAcore 3000, mAb amine-coupled to CM5, HMG1 injected, steady-state model. The procedure: HMG1 Binding Affinity via BIAcore Analysis: All experiments were performed on a BIAcore 3000 instrument (BIAcore, Inc., Piscataway, N.J.). Briefly, each mAb was immobilized to a CM5 sensor chip using a standard amine coupling chemistry. Separately a reference (control) flow cell was also prepared. Two-fold, serial dilutions of HMG1 in instrument buffer were sequentially injected at a slow flow rate over the individual mAb and reference flow-cell surfaces. Following the binding and dissociation of HMG1, the mAbs surfaces were regenerated with a brief pulse of 1M NaCl-50 mM NaOH. At the end of each experiment, the binding curves were evaluated using a steady-state model available through the BIAevaluation software supplied by BIAcore, Inc. (Piscataway, N.J.).
For orientation: In SPR one partner is held on a chip, and binding of the other changes the refractive index at the surface.

Assay [5] concerns the target T5, HMG1 B Box peptide amino acids 150-183.
T5 peptide: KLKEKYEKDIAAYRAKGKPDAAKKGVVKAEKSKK
As to the kind of experiment: ELISA, HMG1 B Box peptide 150-183 coated at 10 ug/ml, antibody titrated, OD 450. The procedure:
as §1

Assay [6] concerns the target T4, recombinant HMG1 produced in E. coli as …. As to the kind of experiment: cell-based or functional assay.

T4 sequence (P09429 whole entry, the tested form may be a part): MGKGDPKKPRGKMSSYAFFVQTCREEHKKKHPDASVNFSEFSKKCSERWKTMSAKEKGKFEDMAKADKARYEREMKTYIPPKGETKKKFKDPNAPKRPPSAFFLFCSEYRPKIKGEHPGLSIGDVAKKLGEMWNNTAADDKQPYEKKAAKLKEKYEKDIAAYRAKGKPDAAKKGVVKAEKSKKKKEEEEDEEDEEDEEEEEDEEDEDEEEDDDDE

B1: human anti-HMG1 antibody G34 (antibody, IgG1, V domains shown)
VH: EVQLLESGGGLVQPGGSLRLSCAASGFTFSHYMMGWVRQAPGKGLEWVSRISPSGGGTVYADSVKGRFTISRDNSKNTLYLQMNSLRAEDTAVYYCARGGNWNYISYYYYYLDVWGKGTTVTVSS
VL: DIQMTQSPSSLSASVGDRVAITCRASQSIDTYLNWYQQKPGKAPKLLIYAASKLEDGVPSRFSGSGTGTDFTLTIRSLQPEDFASYFCQQSYSSPGITFGPGTKVEIK
notes: full length IgG1 made from a human Fab phage clone
Turning to B1, the binding result in assay [1] was “no binding (tested: 10 ug/ml (log 1.0))”; in assay [2], “no binding (tested: 10 ug/mL (single concentration))”; in assay [3], “binds”; in assay [5], “no binding (tested: 10 ug/ml (log 1.0))”. Moreover, the Kd in assay [4] came to 67 nM. The “IC50 IL-6” value in assay [6] turned out to be 0.858 nM.

B2: human anti-HMG1 antibody G35 (antibody, IgG1, V domains shown)
VH: EVQLLESGGGLVQPGGSLRLSCAASGFTFSWYKMVWVRQAPGKGLEWVSSIVPSGGITIYADSVKGRFTISRDNSKNTLYLQMNSLRAEDTAVYYCARVQQWLGRPYFDYWGQGTLVTVSS
VL: DIQMTQSPLSLPVTPGEPASISCRSSQSLLHGNGYNYLDWYLQRPGQSPQLLIYSGSNRASGVPDRFSGSGSGTDFTLKISRVEAEDVGVYYCMQSLQSRTFGQGTKVEIK
notes: as for B1
Regarding B2, the values for the binding result in assay [2], in assay [3] and in assay [5] were “no binding (tested: 10 ug/mL (single concentration))”, “binds” and “no binding (tested: 10 ug/ml (log 1.0))”, respectively. Further, the equilibrium dissociation constant (Kd) in assay [4] was 242 nM. For the same molecule, the “IC50 IL-6” value in assay [6] was 0.564 nM.

B3: human anti-HMG1 antibody G20 (antibody, IgG1, V domains shown)
VH: EVQLLESGGGLVQPGGSLRLSCAASGFTFSWYDMFWVRQAPGKGLEWVSWISPSGGYTKYADSVKGRFTISRDNSKNTLYLQMNSLRAEDTAMYYCARSGLDYYDSSGYLDAFDIWGQGTMVTVSS
VL: DIQMTQSPSSVSASVGDRVTITCRASQDVSIWLAWYQQKPGKAPKLLIFGASRLQSGVPSRFSGSRSGADFTLTIDSVQPEDFASYYCQQADSFPLTFGGGTKVEIK
notes: as for B1
Take B3: the binding result in assay [1] is reported as “no binding (tested: 10 ug/ml (log 1.0))”. In assay [2], the binding result is “no binding (tested: 10 ug/mL (single concentration))”. For the same molecule, the binding result in assay [3] is given as “binds”. For the same molecule, in assay [4], the dissociation constant (Kd) was 114 nM. The binding result in assay [5] is “no binding (tested: 10 ug/ml (log 1.0))”. In assay [6], the “IC50 IL-1β” value was found to be 0.4 µg/mL, the “IC50 IL-6” value amounted to 0.652 nM, the “IC50 NO” value came out at 20.4 µg/mL and the “IC50 TNF-α” value was 0.598 µg/mL.

B4: human anti-HMG1 antibody S14 (antibody, IgG1, V domains shown)
VH: EVQLLESGGGLVQPGGSLRLSCAASGFTFSWYETGWVRQAPGKGLEWVSGISPSGGYTQYADSVKGRFTISRDNSKNTLYLQMNSLRAEDTAVYYCARSGVGATKIFDYWGQGTLVTVSS
VL: DIQMTQSPSSLSASVGDRVTIICRANERINTYLNWYQQKPGKAPKLLISGTSSLESGVPSRFSGSGSGTEFTLSISSLQPEDFASYYCQQSYSSPYTFGQGTNLEIR
notes: as for B1
B4: the binding result in assay [1] was “no binding (tested: 10 ug/ml (log 1.0))”; in assay [2], “no binding (tested: 10 ug/mL (single concentration))”; in assay [3], “binds”; in assay [5] it was “no binding (tested: 10 ug/ml (log 1.0))”. Further, the Kd in assay [4] is 205 nM. In assay [6], the “IC50 IL-1β” value was 0.0578 µg/mL. The “IC50 IL-6” value in assay [6] was 0.191 nM. In assay [6], the “IC50 TNF-α” value stood at 0.0662 µg/mL.

B5: human anti-HMG1 antibody G9 (antibody, IgG1, V domains shown)
VH: EVQLLESGGGLVQPGGSLRLSCAASGFTFSSYDMFWVRQAPGKGLEWVSRISPSGGYTYYADSVKGRFTISRDNSKNTLYLQMNSLRAEDTAVYYCARLRYFDSRGYAFDIWGQGTMVTVSS
VL: DIQMTQSPGTLSLSPGERATLSCRASQSVRSSYLAWYQQKPGQAPRLLIYGASTRATGIPDRFSGSGSGTDFTLTISRLEPEDFAVYYCQQYGTSRWTFGQGTKVEIK
notes: as for B1
Take B5: the binding result in assay [1] is on record as “no binding (tested: 10 ug/ml (log 1.0))”; in assay [2], “no binding (tested: 10 ug/mL (single concentration))”; in assay [3] it was “binds”; in assay [5], “no binding (tested: 10 ug/ml (log 1.0))”. The Kd in assay [4] was found to be 125 nM. Further, the “IC50 IL-1β” value in assay [6] stood at 0.211 µg/mL. Moreover, the “IC50 IL-6” value in assay [6] turned out to be 0.246 nM. Further, the “IC50 TNF-α” value in assay [6] is 0.248 µg/mL.

B6: human anti-HMG1 antibody G12 (antibody, IgG1, V domains shown)
VH: EVQLLESGGGLVQPGGSLRLSCAASGFTFSYYMMTWVRQAPGKGLEWVSSISPSGGYTIYADSAKGRFTISRDNSKNTLYLQMNSLRAEDTAVYYCARALSTGSFWDYWGQGTLVTVSS
VL: DIQMTQSPGTLSLSPGERATLSCRASESLTSTYVAWYQHKPGQAPRLLIHGGSTRATGIPVRFSGSGSGTDFTLTIATLEPEDFAVYYCQQYGSSPYTFGQGTKLEIK
notes: as for B1
Consider B6, for which the binding result in assay [1] was “no binding (tested: 10 ug/ml (log 1.0))”. In addition, the binding result in assay [2] is on record as “no binding (tested: 10 ug/mL (single concentration))”. Moreover, the binding result in assay [3] was “binds”. The Kd in assay [4] came to 73 nM. The binding result in assay [5] is on record as “no binding (tested: 10 ug/ml (log 1.0))”. In addition, in assay [6], the “IC50 IL-1β” value was determined as 5.91 µg/mL, the “IC50 IL-6” value is 1.12 nM, the “IC50 IL-12” value was 2.79 µg/mL and the “IC50 TNF-α” value is 0.796 µg/mL.

The term Kd denotes a measure of binding affinity in units of concentration.
